In US20120136195A1, “DRUG DELIVERY SYSTEM OF TARGET DRUG AND METHOD OF IMPLEMENTING THE SAME” (priority 2010, published 2012):

Assay: Impact of ultrasound acoustic pressure on enzyme activity of the drug
Format: physicochemical
Excerpt: In the evaluation of ultrasound power and parameter adjustment, and their impacts on enzyme activity, in order to ascertain whether ultrasound could affect drug activity, thus evaluating correctly the benefit of the present invention, therefore in an experiment, various acoustic pressure are given, and evaluations are made for activity of drug on the magnetic particles after applying various numbers of pulses. […] From the result it can be confirmed that, the present invention is able to cause suspension of magnetic particles, while reducing as much as possible its impact on the drug carried by the magnetic particles.

Substance: recombinant tissue plasminogen activator [rtPA]
- enzyme activity after applying ultrasound (acoustic pressure of 7.1 MPa (FIG. 9)): apparent loss of enzyme activity
- enzyme activity after applying ultrasound (lower acoustic pressure (below 7.1 MPa, FIG. 9)): will not be affected
